# Assay results as given in the supplement of paper PMC10065799, “High-throughput profiling of sequence recognition by tyrosine kinases and SH2 domains using bacterial peptide display” (eLife, 2023).
# Tested on: AncSZ
# Assay: phosphorylation enrichment, bacterial display (enrichment ratio); higher = better substrate or ligand; peptides without Tyr show the background
# 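Also: 11-residue human phosphosite peptides and single-mutation variants displayed on the E. coli surface, counted by deep sequencing, each peptide's frequency after selection divided by its frequency in the unselected input library; frequency after pTyr selection over input frequency; kinase dosed for 20-30% of maximal phosphorylation in three min.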
row,Sequence,phosphorylation enrichment
1,LSDGPYSNSYE [EPOR_Y485_P488S],1.24
2,MDQAEYQAKIR [DHX58_Y518],0.616
3,SADIAYNFRHG [PAH_Y166_F161S_YF],0.587
4,EKQVAYCPSGK [ROS1_Y2323],0.634
5,EVGRVYLFLQP [ITGA2B_Y360],1.18
6,DGTGHYLCNAC [GATA5_Y208],0.625
7,IGKAGYTDKMV [ENO1_Y236_V240M],0.523
8,EFDRLYEEFTR [PIK3R1_Y467_YF],1.59
9,EEKKKYYDTKI [CASP5_Y103],0.818
10,DLSEVYKPCRK [CCDC93_Y176_R179C],0.847
11,LCRYGYANTSE [SI_Y1233],1.31
12,LHSEAYLKYNE [PBRM1_Y1610_I1614N],0.751
13,IPVNGYQPVPA [ROR2_Y824_V819I],0.582
14,KLPYPYDDPFS [GPX2_Y127],1.09
15,AALRLYHVSDS [VIL1_Y256_K254R],0.738
16,RFVTRYIFNRE [HLA-DQB1_Y62_YF],1.2
17,LARDMDDKEFF [MET_Y1230_Y1230D_YF],0.895

row,Sequence,phosphorylation enrichment
1,RIDPDYVGRVR [IGSF9_Y81],0.871
2,KQLYAYKMLMA [TMC2_Y209],0.629
3,MEYLPYGSLRD [JAK2_Y934],1.45
4,GKTQQYECKWY [BCR_Y751_D752E],0.936
5,PIFEGYALPHA [ACTA1_Y171_YF],0.82
6,SLIDGYFRLTE [JAK2_Y372_A377E_YF],1.07
7,WVFNHYRCIIW [BRCA2_Y2624_W2626C_YF],1.28
8,KVITDYYVDMK [MPP4_Y566],1.26
9,KWKQKYEESQS [MYH6_Y1462_E1457K],0.671
10,QEMMEYRHQIQ [DES_Y324],2.04
11,QEGPEYWDRET [HLA-A_Y83_Q86R],2.03
12,SHSMRYFYTAV [HLA-C_Y31_D33Y],1.04
13,EPYELYCEMGS [CBL_Y371_Q367P],3.71
14,CTLLPYFSAPV [DGKE_Y269_R273P_YF],1.24
15,SQSKGYRPKLF [SIPA1L3_Y1376_G1371S_YF],0.503
16,IGGHAYGDQFR [IDH1_Y135_R132G_YF],0.464

# Biological target: Hck (UniProt P08631)
# Sequence (P08631 whole entry, looked up): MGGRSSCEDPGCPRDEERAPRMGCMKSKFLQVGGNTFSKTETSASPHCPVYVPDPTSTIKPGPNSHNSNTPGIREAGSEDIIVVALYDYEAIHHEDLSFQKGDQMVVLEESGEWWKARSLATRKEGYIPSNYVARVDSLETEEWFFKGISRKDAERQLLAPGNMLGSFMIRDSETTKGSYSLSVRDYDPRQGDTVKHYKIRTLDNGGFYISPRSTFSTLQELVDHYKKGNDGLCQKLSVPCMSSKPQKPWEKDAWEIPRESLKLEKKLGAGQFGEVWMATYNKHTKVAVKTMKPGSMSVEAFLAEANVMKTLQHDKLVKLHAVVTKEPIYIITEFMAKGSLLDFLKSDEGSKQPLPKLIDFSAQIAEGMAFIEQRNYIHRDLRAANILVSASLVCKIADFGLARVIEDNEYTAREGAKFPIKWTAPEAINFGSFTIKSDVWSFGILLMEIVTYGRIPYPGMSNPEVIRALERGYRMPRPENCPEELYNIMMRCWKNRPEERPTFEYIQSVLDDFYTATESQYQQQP
# Assay: as above
row,Sequence,phosphorylation enrichment
1,LSDGPYSNSYE [EPOR_Y485_P488S],0.664
2,MDQAEYQAKIR [DHX58_Y518],0.424
3,SADIAYNFRHG [PAH_Y166_F161S_YF],0.423
4,EKQVAYCPSGK [ROS1_Y2323],0.442
5,EVGRVYLFLQP [ITGA2B_Y360],0.445
6,DGTGHYLCNAC [GATA5_Y208],0.45
7,IGKAGYTDKMV [ENO1_Y236_V240M],0.376
8,EFDRLYEEFTR [PIK3R1_Y467_YF],6.11
9,EEKKKYYDTKI [CASP5_Y103],0.4
10,DLSEVYKPCRK [CCDC93_Y176_R179C],0.506
11,LCRYGYANTSE [SI_Y1233],0.772
12,LHSEAYLKYNE [PBRM1_Y1610_I1614N],0.395
13,IPVNGYQPVPA [ROR2_Y824_V819I],0.513
14,KLPYPYDDPFS [GPX2_Y127],0.589
15,AALRLYHVSDS [VIL1_Y256_K254R],0.485
16,RFVTRYIFNRE [HLA-DQB1_Y62_YF],0.655
17,LARDMDDKEFF [MET_Y1230_Y1230D_YF],0.456

row,Sequence,phosphorylation enrichment
1,RIDPDYVGRVR [IGSF9_Y81],0.403
2,KQLYAYKMLMA [TMC2_Y209],0.458
3,MEYLPYGSLRD [JAK2_Y934],5.07
4,GKTQQYECKWY [BCR_Y751_D752E],0.447
5,PIFEGYALPHA [ACTA1_Y171_YF],0.541
6,SLIDGYFRLTE [JAK2_Y372_A377E_YF],0.442
7,WVFNHYRCIIW [BRCA2_Y2624_W2626C_YF],0.574
8,KVITDYYVDMK [MPP4_Y566],0.576
9,KWKQKYEESQS [MYH6_Y1462_E1457K],0.531
10,QEMMEYRHQIQ [DES_Y324],0.902
11,QEGPEYWDRET [HLA-A_Y83_Q86R],0.871
12,SHSMRYFYTAV [HLA-C_Y31_D33Y],0.631
13,EPYELYCEMGS [CBL_Y371_Q367P],4.22
14,CTLLPYFSAPV [DGKE_Y269_R273P_YF],0.557
15,SQSKGYRPKLF [SIPA1L3_Y1376_G1371S_YF],0.41
16,IGGHAYGDQFR [IDH1_Y135_R132G_YF],0.36

# Biological target: EPHB2 (UniProt P29323)
# Sequence (P29323 whole entry, looked up): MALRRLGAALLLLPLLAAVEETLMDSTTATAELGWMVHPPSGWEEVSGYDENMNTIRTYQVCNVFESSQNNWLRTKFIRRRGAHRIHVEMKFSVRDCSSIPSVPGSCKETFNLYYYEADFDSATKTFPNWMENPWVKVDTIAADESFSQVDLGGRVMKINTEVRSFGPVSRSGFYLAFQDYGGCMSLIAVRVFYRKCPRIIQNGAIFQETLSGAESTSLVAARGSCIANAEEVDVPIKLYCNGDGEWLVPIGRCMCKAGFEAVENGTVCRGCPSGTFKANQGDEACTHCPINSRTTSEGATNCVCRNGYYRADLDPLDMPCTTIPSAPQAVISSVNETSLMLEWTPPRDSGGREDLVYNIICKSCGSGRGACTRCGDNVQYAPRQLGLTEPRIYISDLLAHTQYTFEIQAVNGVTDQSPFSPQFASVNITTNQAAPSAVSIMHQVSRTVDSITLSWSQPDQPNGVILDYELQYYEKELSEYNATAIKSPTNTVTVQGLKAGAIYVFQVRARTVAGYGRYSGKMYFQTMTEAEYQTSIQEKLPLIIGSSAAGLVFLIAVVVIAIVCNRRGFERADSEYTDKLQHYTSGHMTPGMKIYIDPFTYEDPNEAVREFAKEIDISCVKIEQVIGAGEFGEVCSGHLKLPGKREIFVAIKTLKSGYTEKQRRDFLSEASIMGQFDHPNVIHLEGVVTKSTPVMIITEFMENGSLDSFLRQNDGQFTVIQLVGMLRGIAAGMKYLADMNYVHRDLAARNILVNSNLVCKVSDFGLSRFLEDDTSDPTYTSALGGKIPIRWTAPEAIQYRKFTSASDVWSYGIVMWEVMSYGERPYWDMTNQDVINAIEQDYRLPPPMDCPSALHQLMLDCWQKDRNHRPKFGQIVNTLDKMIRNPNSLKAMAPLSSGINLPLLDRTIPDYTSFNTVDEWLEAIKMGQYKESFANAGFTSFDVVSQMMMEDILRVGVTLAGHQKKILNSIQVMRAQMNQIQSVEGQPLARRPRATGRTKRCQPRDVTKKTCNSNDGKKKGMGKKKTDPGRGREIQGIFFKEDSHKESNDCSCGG
# Assay: as above
row,Sequence,phosphorylation enrichment
1,LSDGPYSNSYE [EPOR_Y485_P488S],0.67
2,MDQAEYQAKIR [DHX58_Y518],0.476
3,SADIAYNFRHG [PAH_Y166_F161S_YF],0.33
4,EKQVAYCPSGK [ROS1_Y2323],0.445
5,EVGRVYLFLQP [ITGA2B_Y360],0.676
6,DGTGHYLCNAC [GATA5_Y208],0.445
7,IGKAGYTDKMV [ENO1_Y236_V240M],0.352
8,EFDRLYEEFTR [PIK3R1_Y467_YF],2.77
9,EEKKKYYDTKI [CASP5_Y103],0.421
10,DLSEVYKPCRK [CCDC93_Y176_R179C],0.532
11,LCRYGYANTSE [SI_Y1233],0.661
12,LHSEAYLKYNE [PBRM1_Y1610_I1614N],0.45
13,IPVNGYQPVPA [ROR2_Y824_V819I],0.467
14,KLPYPYDDPFS [GPX2_Y127],0.532
15,AALRLYHVSDS [VIL1_Y256_K254R],0.508
16,RFVTRYIFNRE [HLA-DQB1_Y62_YF],0.591
17,LARDMDDKEFF [MET_Y1230_Y1230D_YF],0.53

row,Sequence,phosphorylation enrichment
1,RIDPDYVGRVR [IGSF9_Y81],0.402
2,KQLYAYKMLMA [TMC2_Y209],0.445
3,MEYLPYGSLRD [JAK2_Y934],1.41
4,GKTQQYECKWY [BCR_Y751_D752E],0.6
5,PIFEGYALPHA [ACTA1_Y171_YF],0.574
6,SLIDGYFRLTE [JAK2_Y372_A377E_YF],0.436
7,WVFNHYRCIIW [BRCA2_Y2624_W2626C_YF],0.644
8,KVITDYYVDMK [MPP4_Y566],0.865
9,KWKQKYEESQS [MYH6_Y1462_E1457K],0.52
10,QEMMEYRHQIQ [DES_Y324],0.833
11,QEGPEYWDRET [HLA-A_Y83_Q86R],0.946
12,SHSMRYFYTAV [HLA-C_Y31_D33Y],0.689
13,EPYELYCEMGS [CBL_Y371_Q367P],6.42
14,CTLLPYFSAPV [DGKE_Y269_R273P_YF],0.677
15,SQSKGYRPKLF [SIPA1L3_Y1376_G1371S_YF],0.32
16,IGGHAYGDQFR [IDH1_Y135_R132G_YF],0.324

# Biological target: MERTK (UniProt Q12866)
# Sequence (Q12866 whole entry, looked up): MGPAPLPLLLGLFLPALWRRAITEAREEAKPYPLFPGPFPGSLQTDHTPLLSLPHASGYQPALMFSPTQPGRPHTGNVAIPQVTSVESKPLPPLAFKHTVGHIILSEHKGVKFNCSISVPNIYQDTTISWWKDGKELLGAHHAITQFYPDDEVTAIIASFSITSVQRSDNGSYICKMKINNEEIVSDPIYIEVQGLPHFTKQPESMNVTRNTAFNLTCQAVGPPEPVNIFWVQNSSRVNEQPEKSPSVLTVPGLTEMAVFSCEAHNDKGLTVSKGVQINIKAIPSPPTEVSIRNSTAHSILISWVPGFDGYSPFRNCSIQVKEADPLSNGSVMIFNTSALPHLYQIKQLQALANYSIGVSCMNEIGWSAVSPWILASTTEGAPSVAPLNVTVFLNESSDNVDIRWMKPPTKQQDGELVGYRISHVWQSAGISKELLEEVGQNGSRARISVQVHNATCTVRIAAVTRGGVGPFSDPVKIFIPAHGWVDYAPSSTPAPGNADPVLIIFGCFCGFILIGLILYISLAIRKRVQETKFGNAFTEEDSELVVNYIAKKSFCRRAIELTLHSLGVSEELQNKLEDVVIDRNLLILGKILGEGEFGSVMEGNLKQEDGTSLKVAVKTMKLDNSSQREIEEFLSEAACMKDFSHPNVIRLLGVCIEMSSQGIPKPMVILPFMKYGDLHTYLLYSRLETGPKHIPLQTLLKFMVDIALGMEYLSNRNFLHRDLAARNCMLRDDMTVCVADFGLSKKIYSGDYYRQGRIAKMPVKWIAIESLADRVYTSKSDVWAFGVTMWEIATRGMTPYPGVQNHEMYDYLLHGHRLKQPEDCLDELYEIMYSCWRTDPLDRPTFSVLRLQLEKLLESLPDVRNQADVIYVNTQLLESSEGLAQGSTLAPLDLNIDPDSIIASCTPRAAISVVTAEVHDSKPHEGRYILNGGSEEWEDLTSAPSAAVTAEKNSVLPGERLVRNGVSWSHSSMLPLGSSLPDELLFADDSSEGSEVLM
# Assay: as above
row,Sequence,phosphorylation enrichment
1,LSDGPYSNSYE [EPOR_Y485_P488S],0.622
2,MDQAEYQAKIR [DHX58_Y518],0.446
3,SADIAYNFRHG [PAH_Y166_F161S_YF],0.374
4,EKQVAYCPSGK [ROS1_Y2323],0.412
5,EVGRVYLFLQP [ITGA2B_Y360],0.34
6,DGTGHYLCNAC [GATA5_Y208],0.398
7,IGKAGYTDKMV [ENO1_Y236_V240M],0.372
8,EFDRLYEEFTR [PIK3R1_Y467_YF],3.04
9,EEKKKYYDTKI [CASP5_Y103],0.366
10,DLSEVYKPCRK [CCDC93_Y176_R179C],0.419
11,LCRYGYANTSE [SI_Y1233],1.15
12,LHSEAYLKYNE [PBRM1_Y1610_I1614N],0.397
13,IPVNGYQPVPA [ROR2_Y824_V819I],0.899
14,KLPYPYDDPFS [GPX2_Y127],0.515
15,AALRLYHVSDS [VIL1_Y256_K254R],0.478
16,RFVTRYIFNRE [HLA-DQB1_Y62_YF],0.643
17,LARDMDDKEFF [MET_Y1230_Y1230D_YF],0.523

row,Sequence,phosphorylation enrichment
1,RIDPDYVGRVR [IGSF9_Y81],0.405
2,KQLYAYKMLMA [TMC2_Y209],0.368
3,MEYLPYGSLRD [JAK2_Y934],0.511
4,GKTQQYECKWY [BCR_Y751_D752E],0.487
5,PIFEGYALPHA [ACTA1_Y171_YF],0.807
6,SLIDGYFRLTE [JAK2_Y372_A377E_YF],0.542
7,WVFNHYRCIIW [BRCA2_Y2624_W2626C_YF],0.538
8,KVITDYYVDMK [MPP4_Y566],0.577
9,KWKQKYEESQS [MYH6_Y1462_E1457K],0.431
10,QEMMEYRHQIQ [DES_Y324],0.762
11,QEGPEYWDRET [HLA-A_Y83_Q86R],0.924
12,SHSMRYFYTAV [HLA-C_Y31_D33Y],3.29
13,EPYELYCEMGS [CBL_Y371_Q367P],3.54
14,CTLLPYFSAPV [DGKE_Y269_R273P_YF],0.453
15,SQSKGYRPKLF [SIPA1L3_Y1376_G1371S_YF],0.458
16,IGGHAYGDQFR [IDH1_Y135_R132G_YF],0.306
